The target of this series is Sam68-6H (UniProt Q07666 1-443). Put plainly: EMSA. Particulars: protein: recombinant; tags: 6xHis (pET30c+); chain copies: 2; label: 5' biotin; two UAAA motifs predicted unpaired.
Chain of Sam68-6H (Q07666 whole entry): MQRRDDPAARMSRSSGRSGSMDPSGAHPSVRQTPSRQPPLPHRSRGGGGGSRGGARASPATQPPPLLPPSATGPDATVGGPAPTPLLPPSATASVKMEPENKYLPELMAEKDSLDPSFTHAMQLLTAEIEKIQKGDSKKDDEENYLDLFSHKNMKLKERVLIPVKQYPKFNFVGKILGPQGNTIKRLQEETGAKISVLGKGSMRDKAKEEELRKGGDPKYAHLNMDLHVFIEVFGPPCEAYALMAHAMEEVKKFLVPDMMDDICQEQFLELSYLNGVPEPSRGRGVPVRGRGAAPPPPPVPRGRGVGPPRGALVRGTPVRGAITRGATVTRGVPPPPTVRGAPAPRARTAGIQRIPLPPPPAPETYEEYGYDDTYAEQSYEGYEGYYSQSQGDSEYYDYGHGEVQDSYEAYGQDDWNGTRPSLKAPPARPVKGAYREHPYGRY

B1: WT domain 4 probe (ssRNA)
RNA: AAGGGGACCGGGGCUUCUAUAAAAGCGCCCGGUUUAAAAAGCUUCUAUGUCUGAAUAGGUGACCG
With B1, the “apparent K (half saturation)” value is approximately 3.16 µM.

These data come from article PMC4689063.
